Laboratory results published in patent US20240182911A1 (University of California, published 2024).
Like-named read-outs stand apart in the source and are kept apart here.

Tests used:
[1] = target: T1, receptor-binding domain (RBD) of the SARS-COV-2 spike (S) protein (SARS-COV-2, UniProt P0DTC2 319-541); experiment: SPR kinetic
[2] = target: T1, receptor-binding domain (RBD) of the …; experiment: SPR equilibrium
[3] = target: T1, receptor-binding domain (RBD) of the …; experiment: SPR kinetic; remark: listed apart in the source
[4] = target: T1, receptor-binding domain (RBD) of the …; experiment: SPR equilibrium; remark: listed apart in the source
[5] = target: T1, receptor-binding domain (RBD) of the …; experiment: SPR equilibrium; remark: listed apart in the source
[6] = target: T1, receptor-binding domain (RBD) of the …; experiment: SPR equilibrium; affinity measurement note: Saturation not reached
[7] = target: T1, receptor-binding domain (RBD) of the …; experiment: On-yeast EC50
[8] = target: T1, receptor-binding domain (RBD) of the …; experiment: SPR kinetic; remark: listed apart in the source
[9] = target: T1, receptor-binding domain (RBD) of the …; experiment: monovalent affinity, assay not named

B1: RBD1i1 (VHH)
VHH: QVQLQESGGGLVQAGGSLRLSCAASGTISYENFMGWYRQAPGKERKLVAGINDGTNTYYADSVKGRFTISRDNAKNTVYLQMNSLKPEDTAVYYCAVIGASVLGHAYWGQGTQVTVSS
[1]
  Kd: 48.1 nM
  koff: 0.0023 s⁻¹
  kon: 47700 M⁻¹ s⁻¹

B2: RBD1i13 (VHH)
VHH: QVQLQESGGGLVQAGGSLRLSCAASGTISYENFMGWYRQAPGKGRKLVAGINDGTNTYYADSVKGRFTISRDNAKNTVYLQMNSLEPEDTAVYYCAVIGASVLGHAYWGQGTQVTVSS
[1]
  Kd: 32.2 nM
  koff: 0.00216 s⁻¹
  kon: 67200 M⁻¹ s⁻¹

B3: RBD1 (VHH)
VHH: QVQLQESGGGLVQAGGSLRLSCAASGTISYENFMGWYRQAPGKERELVAGINDGTNTYYADSVKGRFTISRDNAKNTVYLQMNSLKPEDTAVYYCAVIGTSVLGHAYWGQGTQVTVSS
[1]
  Kd: 1400 nM
  koff: 0.0221 s⁻¹
  kon: 15800 M⁻¹ s⁻¹

B4: RBD11 (VHH)
VHH: QVQLQESGGGLVQAGGSLRLSCAASGNIFAKVWMGWYRQAPGKEREFVASIANGATTYYADSVKGRFTISRDNAKNTVYLQMNSLKPEDTAVYYCAARNWSGLGHFYWGQGTQVTVSS
[2]
  Kd: 2420 nM

B5: RBD11i12 (VHH)
VHH: QVQLQESGGGLVQAGGSLRLSCAASGNIFAKVWMGWYRQAPGKGREFVASIANGATTYYADSVKGRFTISRDNAKNTVYLQMNSLKPEDTAVYYCAARNWSGLGYFYWSQGTQVTVSS
[2]
  Kd: 316 nM

B6: RBD6i10 (VHH)
VHH: QVQLQESGGGLVQAGGSLRLNCAASGSISTTYLMGWYRQAPGKERKFVATINRGGSTYYAVSVKGRFTISRDNAKNTVYLQMNSLKPEDTAVYYCAVGWPDPDYGLAYHRYWGQGTQVTVNS
[3]
  Kd: 597 nM
  koff: 0.00568 s⁻¹
  kon: 9500 M⁻¹ s⁻¹

B7: RBD6i13 (VHH)
VHH: QVQLQESGGGLVQAGGSLRLNCAASGSISTTYLMGWYRQAPGKERKFVATINRGGSTYYAVSVKGRFTISRDNAKNTVYLQMNSLKPEDTAVYYCAVGWPDPGYGLAYHRYWGQGTQVTVNS
[4]
  Kd: 558 nM

B8: RBD6 (VHH)
VHH: QVQLQESGGGLVQAGGSLRLSCAASGSISTTYLMGWYRQAPGKEREFVATINRGGSTYYADSVKGRFTISRDNAKNTVYLQMNSLKPEDTAVYYCAVGWPDPDYGLAYHRYWGQGTQVTVSS
[1]
  Kd: 990 nM
  koff: 0.00892 s⁻¹
  kon: 9010 M⁻¹ s⁻¹

B9: RBD6id (VHH)
VHH: QVQLQESGGGLVQAGGSLRLNCAANGSISTTYLMGWYRQAPGKEREFVATINRGGSTYYAISVKGRFTISRDNAKNTVYLQMNSLKPEDTAVYYCAVGWPDPDYGLAYHRYWGQGTQVTVSS
[3]
  Kd: 263 nM
  koff: 0.00271 s⁻¹
  kon: 10300 M⁻¹ s⁻¹

B10: RBD3i2 (VHH)
VHH: QAQLQESGGGLVQAGGSLRLSCAASGNISDFRFMGWYRQAPGKERELVAAIGRGSNTRYADSVKGRFTISRDNAKNTVYLQMNSLKPEDTAVYYCAARNATYPYYVYWGQGTQVTVSS
[5]
  Kd: 128 nM

B11: RBD3i17 (VHH)
VHH: QAQLQESGGGLVQAGGSLRLSCAASGNISDFRFMGWYRQAPGKERELVAAIGRGSNTRCADSVKGRFTISRDNAKNTVYLQMNSLKPEDTAVYYCAARNATYPYYVYWGQGTQVTVSS
[5]
  Kd: 230 nM

B12: RBD3 (VHH)
VHH: QVQLQESGGGLVQAGGSLRLSCAASGNISDFRFMGWYRQAPGKERELVAAIGRGSNTYYADSVKGRFTISRDNAKNTVYLQMNSLKPEDTAVYYCAARNATYPYYVYWGQGTQVTVSS
[6]
  Kd: 6000 nM

B13: RBD7i12 (VHH)
VHH: QVQLQESGGGLVQAGGSLRLSCAASGYISGAYYMGWYRQAPGKEREFVAGIGGGSTNYADSVKGRFTISRDNAKNTVYLQMNSLKPEDTAVYYCAVYQSVAYYCRGYFSYWGQGTQVTVSS
[4]
  Kd: 2590 nM

B14: RBD7i13 (VHH)
VHH: QVQLQESGGGLVQAGGSLRLSCAASGYISGAYYMGWYRQAPGKERKFVAGIGGGSTNYADSVKGRFTISRDNAKNTVYLQMNSLKPEDTAVYYCAVYQSVAYYCRGYFSYWGQGTQVTVSS
[4]
  Kd: 659 nM

B15: RBD7 (VHH)
VHH: QVQLQESGGGLVQAGGSLRLSCAASGYISGAYYMGWYRQAPGKEREFVAGIGGGSTNYADSVKGRFTISRDNAKNTVYLQMNSLKPEDTAVYYCAVYQSVAYYYRGYFSYWGQGTQVTVSS
[4]
  Kd: 2210 nM

B16: RBD9 (VHH)
VHH: QVQLQESGGGLVQAGGSLRLSCAASGYIFYSRRMGWYRQAPGKEREFVATIGHGTSTYYADSVKGRFTISRDNAKNTVYLQMNSLKPEDTAVYYCAALPRPHGAGTADARYNLWYWGQGTQVTVSS
[7]
  EC50: 131 nM

B17: RBD9i10 (VHH)
VHH: QVQLQESGGGLVQAGGSLRLSCAASGYIFYSRRMGWYRQAPGKEREFVATIGHGASTYYAGSVKGRFTISRDNAKNTVYLQMDSLKPEDTAVYYCAALPRPHGAGTADARYNLWYWGQGTQVTVSS
[7]
  EC50: 15.2 nM

B18: RBD10i10 (VHH)
VHH: QVQLQESGGGLVQAGGSLRLSCAASGTIFQVGSMGWYRQAPGKGRKFVATIADGGSTNYAGSVKGRFTISRDNAKNTVYLQMNSLKPEDTAVYYCAALGQVSEYNSASYEWTYPYWGQGTQVTVSS
[8]
  Kd: 2.14 nM
  kon: 154000 M⁻¹ s⁻¹

B19: RBD10 (VHH)
VHH: QVQLQESGGGLVQAGGSLRLSCAASGTIFQVGSMGWYRQAPGKEREFVATIADGSSTNYADSVKGRFTISRDNAKNTVYLQMNSLKPEDTAVYYCAALGQVSEYNSASYEWTYPYWGQGTQVTVSS
[8]
  Kd: 417 nM
  koff: 0.00552 s⁻¹
  kon: 13200 M⁻¹ s⁻¹

B20: RBD10i14 (VHH)
VHH: QVQLQESGGGLVQAGGSLRLSCAASGTIFQVGSVGWYRQAPGKGRKFVATIADGSSTNYAGSVKGRFTISRDNAKNTVYLQMNSLKPEDTAVYYCAALGQVSEYNSASYEWTYPYWGQGTQVTVSS
[8]
  koff: 0.000118 s⁻¹
  kon: 167000 M⁻¹ s⁻¹
[9]
  Kd: 0.72 nM

B21: RBD8 (VHH)
VHH: QVQLQESGGGLVQAGGSLRLSCAASGTIFGGPWMGWYRQAPGKEREFVAAIARGGNTNYADSVKGRFTISRDNAKNTVYLQMNSLKPEDTAVYYCAARDAVYPYLKYWGQGTQVTVSS
[7]
  EC50: 80.8 nM

B22: RBD8i1 (VHH)
VHH: QVQLQESGGGLVQAGGSLRLSCAASGTISGGPWMGWYRQAPGKEREFVAAIARGGNTNYADSVKGRFTISRDNAKNTVYLQMNSLKPEDTAVYYCAARDAVYPYLKYWGQGTQVTVSS
[7]
  EC50: 35.4 nM
